# Experimental data as given in patent US20210388110A1 (published 2021).
# Changes are numbered by the printed parent chain.
# B1: H0610-G1dh/none-Hi-Kn010G3/L0000-k0 (antibody, human IgG1, kappa)
# heavy: not shown
# chain: EPKSSDKTHTCPPCPAPELLGGPSVFLFPPKPKDTLMISRTPEVTCVVVDVSHEDPEVKFNWYVDGVEVHNAKTKPREEQYNSTYRVVSVLTVLHQDWLNGKEYKCKVSNKALPAPIEKTISKAKGQPREPQVCTLPPSRDELTKNQVSLWCLVKGFYPSDIAVEWESNGQPENNYKTTPPVLDSDGSFFLYSKLTVDKSRWQQGNVFSCSVMHEALHNRYTQKSLSLSP
# light: DIVMTQSPLSLPVTPGEPASISCRSSQSLVHSNRNTYLHWYQQKPGQAPRLLIYKVSNRFSGVPDRFSGSGSGTDFTLKISRVEAEDVGVYYCGQGTQVPYTFGQGTKLEIKRTVAAPSVFIFPPSDEQLKSGTASVVCLLNNFYPREAKVQWKVDNALQSGNSQESVTEQDSKDSTYSLSSTLTLSKADYEKHKVYACEVTHQGLSSPVTKSFNRGEC
# notes: single-arm (one Fab)
# B2: GCH006-G1dh/none-Hi-Kn010G3/L0000-k0 (antibody, human IgG1, kappa)
# heavy: not shown
# chain: B1 chain
# light: B1 light
# notes: single-arm (one Fab)
# B3: GCH007-G1dh/none-Hi-Kn010G3/L0000-k0 (antibody, human IgG1, kappa)
# heavy: not shown
# chain: B1 chain
# light: B1 light
# notes: single-arm (one Fab)
# B4: GCH010-G1dh/none-Hi-Kn010G3/L0000-k0 (antibody, human IgG1, kappa)
# heavy: not shown
# chain: B1 chain
# light: B1 light
# notes: single-arm (one Fab)
# B5: GCH013-G1dh/none-Hi-Kn010G3/L0000-k0 (antibody, human IgG1, kappa)
# heavy: not shown
# chain: B1 chain
# light: B1 light
# notes: single-arm (one Fab)
# B6: GCH014-G1dh/none-Hi-Kn010G3/L0000-k0 (antibody, human IgG1, kappa)
# heavy: not shown
# chain: B1 chain
# light: B1 light
# notes: single-arm (one Fab)
# B7: GCH015-G1dh/none-Hi-Kn010G3/L0000-k0 (antibody, human IgG1, kappa)
# heavy: not shown
# chain: B1 chain
# light: B1 light
# notes: single-arm (one Fab)
# B8: GCH016-G1dh/none-Hi-Kn010G3/L0000-k0 (antibody, human IgG1, kappa)
# heavy: not shown
# chain: B1 chain
# light: B1 light
# notes: single-arm (one Fab)
# B9: GCH019-G1dh/none-Hi-Kn010G3/L0000-k0 (antibody, human IgG1, kappa)
# heavy: not shown
# chain: B1 chain
# light: B1 light
# notes: single-arm (one Fab)
# B10: GCH025-G1dh/none-Hi-Kn010G3/L0204-k0 (antibody, human IgG1, kappa)
# heavy: not shown
# chain: B1 chain
# light: B1 light with L29P, S61R
# notes: single-arm (one Fab)
# B11: GCH027-G1dh/none-Hi-Kn010G3/L0000-k0 (antibody, human IgG1, kappa)
# heavy: not shown
# chain: B1 chain
# light: B1 light
# notes: single-arm (one Fab)
# B12: GCH029-G1dh/none-Hi-Kn010G3/L0000-k0 (antibody, human IgG1, kappa)
# heavy: not shown
# chain: B1 chain
# light: B1 light
# notes: single-arm (one Fab)
# B13: GCH035-G1dh/none-Hi-Kn010G3/L0000-k0 (antibody, human IgG1, kappa)
# heavy: not shown
# chain: B1 chain
# light: B1 light
# notes: single-arm (one Fab)
# B14: GCH039-G1dh/none-Hi-Kn010G3/L0000-k0 (antibody, human IgG1, kappa)
# heavy: not shown
# chain: B1 chain
# light: B1 light
# notes: single-arm (one Fab)
# B15: GCH040-G1dh/none-Hi-Kn010G3/L0000-k0 (antibody, human IgG1, kappa)
# heavy: not shown
# chain: B1 chain
# light: B1 light
# notes: single-arm (one Fab)
# B16: GCH042-G1dh/none-Hi-Kn010G3/L0000-k0 (antibody, human IgG1, kappa)
# heavy: not shown
# chain: B1 chain
# light: B1 light
# notes: single-arm (one Fab)
# B17: GCH043-G1dh/none-Hi-Kn010G3/L0000-k0 (antibody, human IgG1, kappa)
# heavy: not shown
# chain: B1 chain
# light: B1 light
# notes: single-arm (one Fab)
# B18: GCH045-G1dh/none-Hi-Kn010G3/L0000-k0 (antibody, human IgG1, kappa)
# heavy: not shown
# chain: B1 chain
# light: B1 light
# notes: single-arm (one Fab)
# B19: GCH053-G1dh/none-Hi-Kn010G3/L0000-k0 (antibody, human IgG1, kappa)
# heavy: not shown
# chain: B1 chain
# light: B1 light
# notes: single-arm (one Fab)
# B20: GCH054-G1dh/none-Hi-Kn010G3/L0200-k0 (antibody, human IgG1, kappa)
# heavy: not shown
# chain: B1 chain
# light: B1 light with S25P, L29P
# notes: single-arm (one Fab)
# B21: GCH054-G1dh/none-Hi-Kn010G3/L0201-k0 (antibody, human IgG1, kappa)
# heavy: not shown
# chain: B1 chain
# light: B1 light with S28P, L29P
# notes: single-arm (one Fab)
# B22: GCH054-G1dh/none-Hi-Kn010G3/L0203-k0 (antibody, human IgG1, kappa)
# heavy: not shown
# chain: B1 chain
# light: B1 light with L29P, L38I
# notes: single-arm (one Fab)
# B23: GCH054-G1dh/none-Hi-Kn010G3/L0212-k0 (antibody, human IgG1, kappa)
# heavy: not shown
# chain: B1 chain
# light: B1 light with S25P, L29P, G94Y
# notes: single-arm (one Fab)
# B24: GCH054-G1dh/none-Hi-Kn010G3/L0215-k0 (antibody, human IgG1, kappa)
# heavy: not shown
# chain: B1 chain
# light: B1 light with S28P, L29P, L38I
# notes: single-arm (one Fab)
# B25: GCH054-G1dh/none-Hi-Kn010G3/L0222-k0 (antibody, human IgG1, kappa)
# heavy: not shown
# chain: B1 chain
# light: B1 light with L29P, L38I, H39Q, G94Y
# notes: single-arm (one Fab)
# B26: GCH054-G1dh/none-Hi-Kn010G3/L0246-k0 (antibody, human IgG1, kappa)
# heavy: not shown
# chain: B1 chain
# light: B1 light with L29P, L38I, H39Q, G94S
# notes: single-arm (one Fab)
# B27: GCH054-G1dh/none-Hi-Kn010G3/L0249-k0 (antibody, human IgG1, kappa)
# heavy: not shown
# chain: B1 chain
# light: B1 light with S25P, L29P, L38I, H39Q, G94S
# notes: single-arm (one Fab)
# B28: GCH054-G1dh/none-Hi-Kn010G3/L0262-k0 (antibody, human IgG1, kappa)
# heavy: not shown
# chain: B1 chain
# light: B1 light with S28P, L29P, G94A
# notes: single-arm (one Fab)
# B29: GCH054-G1dh/none-Hi-Kn010G3/TR01L015-k0 (antibody, human IgG1, kappa)
# heavy: not shown
# chain: B1 chain
# light: B1 light with L29P, Q42L, A48S, R50Q
# notes: single-arm (one Fab)
# B30: GCH054-G1dh/none-Hi-Kn010G3/TR01L016-k0 (antibody, human IgG1, kappa)
# heavy: not shown
# chain: B1 chain
# light: B1 light with L29P, Q42L, A48S, R50Q, G94Y
# notes: single-arm (one Fab)
# B31: GCH054-G1dh/none-Hi-Kn010G3/TR01L018-k0 (antibody, human IgG1, kappa)
# heavy: not shown
# chain: B1 chain
# light: B1 light with R24Q, S25A, Q27E, L29P, Q42L, A48S, R50Q
# notes: single-arm (one Fab)
# B32: GCH054-G1dh/none-Hi-Kn010G3/TR01L019-k0 (antibody, human IgG1, kappa)
# heavy: not shown
# chain: B1 chain
# light: B1 light with R24Q, S25A, Q27E, L29P, Q42L, A48S, R50Q, G94Y
# notes: single-arm (one Fab)
# B33: GCH055-G1dh/none-Hi-Kn010G3/L0200-k0 (antibody, human IgG1, kappa)
# heavy: not shown
# chain: B1 chain
# light: B1 light with S25P, L29P
# notes: single-arm (one Fab)
# Molecular target: T1, soluble human GPC3 (human, UniProt P51654 25-563, limits assumed)
# T1 construct: soluble human GPC3 as analyte; also called glypican 3
# T1 sequence (P51654 other isoform, or with tags, fused parts or gaps limits assumed, form in doubt): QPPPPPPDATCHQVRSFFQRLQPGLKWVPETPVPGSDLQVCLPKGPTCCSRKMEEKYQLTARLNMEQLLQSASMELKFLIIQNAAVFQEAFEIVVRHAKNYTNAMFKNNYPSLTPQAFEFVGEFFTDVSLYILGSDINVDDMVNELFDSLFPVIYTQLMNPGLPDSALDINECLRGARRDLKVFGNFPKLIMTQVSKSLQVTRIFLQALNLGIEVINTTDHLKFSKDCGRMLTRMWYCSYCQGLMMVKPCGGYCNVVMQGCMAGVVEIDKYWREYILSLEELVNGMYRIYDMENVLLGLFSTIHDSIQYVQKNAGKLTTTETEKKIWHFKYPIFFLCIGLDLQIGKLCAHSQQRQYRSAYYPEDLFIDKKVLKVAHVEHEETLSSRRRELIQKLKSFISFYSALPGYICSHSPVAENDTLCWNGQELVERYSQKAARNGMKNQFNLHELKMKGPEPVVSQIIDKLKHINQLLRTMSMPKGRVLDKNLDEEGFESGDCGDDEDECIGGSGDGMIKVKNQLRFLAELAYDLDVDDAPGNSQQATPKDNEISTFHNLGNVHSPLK
# Test: SPR (Biacore), soluble human GPC3
row,Kd [nM],Binder
1,3.97,B1
2,4.06,B2
3,4.93,B3
4,4.12,B4
5,4.44,B5
6,4.2,B6
7,4.14,B7
8,4.59,B8
9,4.36,B9
10,0.67,B10
11,3.83,B11
12,5.01,B12
13,4.94,B13
14,4.95,B14
15,4.8,B15
16,4.89,B16
17,3.74,B17

row,Kd [nM],Binder
1,4.63,B18
2,4.05,B19
3,1.18,B20
4,1.08,B21
5,2.48,B22
6,0.517,B23
7,1.62,B24
8,0.0315,B25
9,0.0315,B26
10,0.00361,B27
11,0.000525,B28
12,2.45,B29
13,0.763,B30
14,2.59,B31
15,0.871,B32
16,1.13,B33
